In patent publication EP2275116A1:

Target: human p21-activated kinase 1 (PAK1) (human) (UniProt Q13153)
Test: cell-based or functional assay

Chain of UniProt Q13153 (Q13153 whole entry R237L/F379S, form in doubt): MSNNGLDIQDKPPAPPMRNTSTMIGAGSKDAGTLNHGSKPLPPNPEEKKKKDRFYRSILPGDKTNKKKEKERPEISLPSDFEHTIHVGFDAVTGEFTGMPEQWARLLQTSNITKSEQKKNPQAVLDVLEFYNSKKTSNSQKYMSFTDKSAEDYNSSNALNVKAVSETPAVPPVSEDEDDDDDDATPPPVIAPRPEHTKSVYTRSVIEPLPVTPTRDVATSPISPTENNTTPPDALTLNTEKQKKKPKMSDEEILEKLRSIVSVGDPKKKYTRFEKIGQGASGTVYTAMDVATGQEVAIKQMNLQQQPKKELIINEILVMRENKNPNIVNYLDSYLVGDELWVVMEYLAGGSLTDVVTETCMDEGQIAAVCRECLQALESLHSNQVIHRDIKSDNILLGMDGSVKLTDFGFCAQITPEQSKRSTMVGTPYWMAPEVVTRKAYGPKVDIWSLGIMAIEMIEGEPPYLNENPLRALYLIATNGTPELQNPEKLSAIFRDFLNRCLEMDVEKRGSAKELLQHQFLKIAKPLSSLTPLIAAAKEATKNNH

With “HA-tagged PAK1 inhibitory domain (PAK1 residues 83 to 149) (from UniProt P35465 83-149)” the inhibition of IL-1β induced expression of PGE2 in SW1353 cells (ELISA of supernatant) was over 50%, the inhibition of IL-1β-induced expression of MMP13 in SW1353 cells (ELISA of supernatant) was 55% and the inhibition of basal MMP13 expression in non-stimulated SW1353 cells (ELISA of supernatant) was over 80%.
